Reference: the supplement of paper PMC10724198
± gives the standard deviation of the averaged measurements.

System: Saccharomyces cerevisiae
Experiment: protein stability index of tFT-peptide fusion (C-terminal peptide) (PSI (0-1 scale)); higher = more stable (slower turnover)
Settings: genetic background: das1 deletion; temperature: 30 C
Method: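 MPS profiling in S. cerevisiae of the yeast C-terminome library: the last 12 aa of each annotated ORF are fused to the C-terminus of a sfGFP-mCherry timer, after a GGGS linker. Cells are FACS-sorted into 8 mCherry/sfGFP bins and deep-sequenced. PSI runs from 0 (unstable) to 1 (stable); wild type and das1Δ backgrounds, two technical replicates each.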

NGSDNVTPGGRL [STE50 C-terminal 12 aa] was tested. Which protein stability index did it give?
Its protein stability index is 0.708 ± 0.014.

How did the protein stability index turn out when NIIIIILYVYIH [MOR1 C-terminal 12 aa] was run?
The protein stability index was 0.227 ± 0.0036.

How did the protein stability index turn out when NISNGSSTQDMK [HPR1 C-terminal 12 aa] was run?
The protein stability index was 0.703 ± 0.029.

Which protein stability index does the source give for NKGSQLLAKLLK [PUF6 C-terminal 12 aa] here?
Its protein stability index is 0.7305 ± 0.0034.

How did the protein stability index turn out when NKHDLHLRPETY [YAR010C C-terminal 12 aa] was run?
The protein stability index was 0.658 ± 0.018.

Which protein stability index does the source give for “NKHDLHLRPGTY [YDR098C-A C-terminal 12 aa]” here?
The protein stability index was 0.66848 ± 3.1e-05.

For NKLLDKESVSED [YLR046C C-terminal 12 aa], which protein stability index is on record?
Its protein stability index is 0.709 ± 0.027.

With “NKTICLRNYHWL [YIR017W-A C-terminal 12 aa]” as the sequence, how does the protein stability index read?
The protein stability index was 0.702 ± 0.012.

With NLKLKFNENIME [DIT2 C-terminal 12 aa] as the sequence, how does the protein stability index read?
Its protein stability index is 0.695 ± 0.033.

Which protein stability index does the source give for NLLLSGSLYQKN [BUD28 C-terminal 12 aa] here?
Its protein stability index is 0.751 ± 0.011.

With NMEKFVRKCWKD [MKK1 C-terminal 12 aa] as the sequence, how does the protein stability index read?
The protein stability index was 0.691 ± 0.059.

NQVKLNQLLVGN [CSE1 C-terminal 12 aa] was tested. Which protein stability index did it give?
Its protein stability index is 0.627 ± 0.038.

NTLLSPSRKDNS [MVB12 C-terminal 12 aa] was tested. Which protein stability index did it give?
Its protein stability index is 0.705 ± 0.0098.

For NVAAAEASKKGN [YET1 C-terminal 12 aa], which protein stability index is on record?
Its protein stability index is 0.728 ± 0.033.

NVDDAYSRVFGI [MPS2 C-terminal 12 aa] was tested. Which protein stability index did it give?
The protein stability index was 0.719 ± 0.011.

For NVEDEYSYSLTL [VPS68 C-terminal 12 aa], which protein stability index is on record?
The protein stability index was 0.701 ± 0.0071.

How did the protein stability index turn out when NVGNNEETLDDH [RAD34 C-terminal 12 aa] was run?
Its protein stability index is 0.726 ± 0.047.

For NVWDWNNWTSAT [GAL11 C-terminal 12 aa], which protein stability index is on record?
Its protein stability index is 0.7485 ± 0.006.

With NYESVEVPAANN [YML018C C-terminal 12 aa] as the sequence, how does the protein stability index read?
The protein stability index was 0.682 ± 0.0077.

How did the protein stability index turn out when PARESMLHKEIK [ADE12 C-terminal 12 aa] was run?
The protein stability index was 0.745 ± 0.011.

With “PCYSDAPPRFMC [YER152W-A C-terminal 12 aa]” as the sequence, how does the protein stability index read?
Its protein stability index is 0.701 ± 0.034.

PDMIEELDLHED [GPD1 C-terminal 12 aa] was tested. Which protein stability index did it give?
Its protein stability index is 0.716 ± 0.031.

How did the protein stability index turn out when “PDYKSNTQILVL [YOL155W-A C-terminal 12 aa]” was run?
The protein stability index was 0.56446 ± 0.00018.

For PEEETNWFSGHG [PRP31 C-terminal 12 aa], which protein stability index is on record?
The protein stability index was 0.745 ± 0.032.

How did the protein stability index turn out when PEMIEELDIDDE [GPD2 C-terminal 12 aa] was run?
The protein stability index was 0.707 ± 0.018.

For PEYDQVKQNNKE [YLR041W C-terminal 12 aa], which protein stability index is on record?
The protein stability index was 0.691 ± 0.023.

Which protein stability index does the source give for PFNRNVSDKLKK [VAC14 C-terminal 12 aa] here?
Its protein stability index is 0.733 ± 0.038.

How did the protein stability index turn out when PGVMLGRWKVTA [VPS61 C-terminal 12 aa] was run?
The protein stability index was 0.612 ± 0.013.

Which protein stability index does the source give for PGWDFNVQIFAI [HRD3 C-terminal 12 aa] here?
The protein stability index was 0.618 ± 0.005.

Which protein stability index does the source give for “PIICASVTFLPT [YAL056C-A C-terminal 12 aa]” here?
The protein stability index was 0.6572 ± 0.00082.

How did the protein stability index turn out when PIKGGDKASSEL [ATG5 C-terminal 12 aa] was run?
Its protein stability index is 0.679 ± 0.0085.

With PILSQEVDRWRL [GAC1 C-terminal 12 aa] as the sequence, how does the protein stability index read?
Its protein stability index is 0.732 ± 0.011.

For PIRGVTGGVYKW [MRPL22 C-terminal 12 aa], which protein stability index is on record?
The protein stability index was 0.71 ± 0.012.

PKALFQSRDQEH [SIC1 C-terminal 12 aa] was tested. Which protein stability index did it give?
Its protein stability index is 0.724 ± 0.022.

With PKIGILHNYLYL [YFT2 C-terminal 12 aa] as the sequence, how does the protein stability index read?
Its protein stability index is 0.698 ± 0.015.

With “PLLLVSHLNFAV [YIR020C-B C-terminal 12 aa]” as the sequence, how does the protein stability index read?
Its protein stability index is 0.673 ± 0.0087.

For PLVHEVNGNEGK [DUF1 C-terminal 12 aa], which protein stability index is on record?
Its protein stability index is 0.68 ± 0.011.

How did the protein stability index turn out when PNAIRGIKAKKA [COX7 C-terminal 12 aa] was run?
The protein stability index was 0.723 ± 0.011.

How did the protein stability index turn out when PPVPEVPQEYTQ [TCB3 C-terminal 12 aa] was run?
Its protein stability index is 0.722 ± 0.014.

Which protein stability index does the source give for PSLRTRSSYTEE [FLR1 C-terminal 12 aa] here?
Its protein stability index is 0.6845 ± 0.0013.

How did the protein stability index turn out when PTCETTIDIDRI [ZRG17 C-terminal 12 aa] was run?
The protein stability index was 0.687 ± 0.0087.

For QDGIKEAASALA [INO80 C-terminal 12 aa], which protein stability index is on record?
Its protein stability index is 0.6794 ± 0.0025.

How did the protein stability index turn out when QDKRSSQAIDVL [MMS21 C-terminal 12 aa] was run?
Its protein stability index is 0.688 ± 0.015.

QEGNRMCIWMSG [YFL015C C-terminal 12 aa] was tested. Which protein stability index did it give?
Its protein stability index is 0.7 ± 0.0079.

With QEGTFKRLALPA [THI11 C-terminal 12 aa] as the sequence, how does the protein stability index read?
The protein stability index was 0.639 ± 0.013.

For QEKEHKKHTVAR [CAJ1 C-terminal 12 aa], which protein stability index is on record?
The protein stability index was 0.694 ± 0.011.

For QFLFTGRQKNYV [ERP2 C-terminal 12 aa], which protein stability index is on record?
The protein stability index was 0.718 ± 0.017.

QFWKNTPKVEQK [HOC1 C-terminal 12 aa] was tested. Which protein stability index did it give?
Its protein stability index is 0.71 ± 0.024.

QGALDSLLNGDV [DSK2 C-terminal 12 aa] was tested. Which protein stability index did it give?
Its protein stability index is 0.685 ± 0.03.

How did the protein stability index turn out when QGKAFYDRIKDL [RFS1 C-terminal 12 aa] was run?
Its protein stability index is 0.683 ± 0.013.

Which protein stability index does the source give for QGKVRLWKLNHY [UTP18 C-terminal 12 aa] here?
Its protein stability index is 0.7 ± 0.021.

Which protein stability index does the source give for QIDKYMDLFTEG [PDH1 C-terminal 12 aa] here?
The protein stability index was 0.7253 ± 0.0065.

Which protein stability index does the source give for QIVEEWIVSTEA [CLB4 C-terminal 12 aa] here?
Its protein stability index is 0.623 ± 0.012.

For QIVNSTPVFTWC [LSB6 C-terminal 12 aa], which protein stability index is on record?
The protein stability index was 0.653 ± 0.03.

“QKRSCFFLANIH [YKL183C-A C-terminal 12 aa]” was tested. Which protein stability index did it give?
Its protein stability index is 0.661 ± 0.01.

With QLENKLEILKQK [SPC19 C-terminal 12 aa] as the sequence, how does the protein stability index read?
Its protein stability index is 0.699 ± 0.052.

How did the protein stability index turn out when QLLNLLVKISQL [RFC2 C-terminal 12 aa] was run?
Its protein stability index is 0.677 ± 0.032.

How did the protein stability index turn out when QNLLPAEKFTHN [CTR1 C-terminal 12 aa] was run?
The protein stability index was 0.6962 ± 0.0032.

For QPKKKRKKSILH [SPP41 C-terminal 12 aa], which protein stability index is on record?
Its protein stability index is 0.749 ± 0.061.

For “QPLLPCFFRRAV [YER147C-A C-terminal 12 aa]”, which protein stability index is on record?
Its protein stability index is 0.691 ± 0.011.

QQLQSPTAPPTE [COX14 C-terminal 12 aa] was tested. Which protein stability index did it give?
Its protein stability index is 0.727 ± 0.008.

How did the protein stability index turn out when QQSESLPQQTTA [PIL1 C-terminal 12 aa] was run?
Its protein stability index is 0.7046 ± 0.0038.

How did the protein stability index turn out when QRIEGMLQLLTS [UTP15 C-terminal 12 aa] was run?
The protein stability index was 0.715 ± 0.025.

Which protein stability index does the source give for QSLYKDATSHWL [GYP1 C-terminal 12 aa] here?
The protein stability index was 0.7085 ± 0.0033.

How did the protein stability index turn out when “QSVAILDGKLVW [YGL258W-A C-terminal 12 aa]” was run?
The protein stability index was 0.677 ± 0.015.

With QTLAPVPYETFI [RPL21A C-terminal 12 aa] as the sequence, how does the protein stability index read?
The protein stability index was 0.718 ± 0.01.

How did the protein stability index turn out when QVVAIIKKAYEY [ADH4 C-terminal 12 aa] was run?
Its protein stability index is 0.707 ± 0.0071.

With QYKNKLAKNVVL [ARB1 C-terminal 12 aa] as the sequence, how does the protein stability index read?
Its protein stability index is 0.675 ± 0.012.

With QYTQRVGRPNFE [YGR226C C-terminal 12 aa] as the sequence, how does the protein stability index read?
The protein stability index was 0.7078 ± 0.0012.

RARPRTANRQHM [CCT2 C-terminal 12 aa] was tested. Which protein stability index did it give?
The protein stability index was 0.68332 ± 0.0002.

How did the protein stability index turn out when RDLLRDDKVALI [SLD5 C-terminal 12 aa] was run?
The protein stability index was 0.715 ± 0.023.

For REENAHLETYKV [HRK1 C-terminal 12 aa], which protein stability index is on record?
Its protein stability index is 0.7 ± 0.0068.

Which protein stability index does the source give for RERALKVYKDAM [PHR1 C-terminal 12 aa] here?
Its protein stability index is 0.6824 ± 0.004.

Which protein stability index does the source give for RFQDGTSVVSIM [SMC2 C-terminal 12 aa] here?
Its protein stability index is 0.695 ± 0.011.

For RHISRLSRLLCR [YGR273C C-terminal 12 aa], which protein stability index is on record?
The protein stability index was 0.6071 ± 0.00082.

How did the protein stability index turn out when RINQDIKKVKLL [EMP46 C-terminal 12 aa] was run?
Its protein stability index is 0.6957 ± 0.0047.

RKAVDALRSLTN [ACK1 C-terminal 12 aa] was tested. Which protein stability index did it give?
The protein stability index was 0.719 ± 0.051.

How did the protein stability index turn out when RKVVFERMETLE [MRPS16 C-terminal 12 aa] was run?
The protein stability index was 0.6857 ± 0.0044.

For RLGDVLRVCCPS [YFL065C C-terminal 12 aa], which protein stability index is on record?
Its protein stability index is 0.627 ± 0.0072.

RLKLDYSLIFPQ [MEI5 C-terminal 12 aa] was tested. Which protein stability index did it give?
Its protein stability index is 0.7 ± 0.01.

How did the protein stability index turn out when “RLLSLAQPPVNF [YER165C-A C-terminal 12 aa]” was run?
The protein stability index was 0.7584 ± 0.0037.

For RQCEDTNFGFKI [YDL242W C-terminal 12 aa], which protein stability index is on record?
Its protein stability index is 0.6949 ± 0.0057.
